Test results: PMC8980021

Assays:
[1] = target: ALPN-202 (davoceticept), variant CD80 IgV domain Fc fusion (human) (UniProt P33681); experiment: SPR; Biacore 3000, CM5 chip with goat anti-human IgG capture antibody; ALPN-202 (120 RU) or WT CD80 ECD-Fc (160 RU) captured; monomeric human CD28, CTLA-4, PD-L1 as analytes; 240 s association, 600 s dissociation, 30 uL/min; global 1:1 fit; for the weak interactions a minimal KD with theoretical Rmax fixed
[2] = target: wild type human CD80 extracellular domain Fc fusion (WT CD80 ECD-Fc) (human) (UniProt P33681); experiment: as above

Row | Kd [1] [nM] | Kd [2] [nM] | Substance
1 | 9.9 | > 2600 | recombinant monomeric human CD28 (from UniProt P10747 19-152) (receptor)
2 |  | > 37000 | recombinant monomeric human PD-L1 (from UniProt Q9NZQ7 19-238) (ligand)
